Molecular target: 10042.05.SOSIP trimer (recombinant HIV-1 Env trimer 10042.05 from subject VC10042, cleaved SOSIP form) (HIV-1)
Assay: SEC + native gel or EMSA; Superdex 200 16/600 pg SEC after lectin and ion exchange steps; fractions and final preparation on blue native PAGE; analytical SEC as QC

## 10042.05.SOSIP trimer (recombinant HIV-1 Env trimer 10042.05 from subject VC10042, cleaved SOSIP form) (complex)
  stoichiometry N: 3
